Laboratory results from patent US20260217779A1 (Chugai, published 2026).
Residue numbers refer to the chain shown, from its start. Names may count otherwise. Each block holds one binder with its values, some of them ahead of it.

Biological target: T1, human CXCR3 (hCXCR3) on Ba/F3 transfectant cells (human, UniProt P49682 1-368)
T1 sequence: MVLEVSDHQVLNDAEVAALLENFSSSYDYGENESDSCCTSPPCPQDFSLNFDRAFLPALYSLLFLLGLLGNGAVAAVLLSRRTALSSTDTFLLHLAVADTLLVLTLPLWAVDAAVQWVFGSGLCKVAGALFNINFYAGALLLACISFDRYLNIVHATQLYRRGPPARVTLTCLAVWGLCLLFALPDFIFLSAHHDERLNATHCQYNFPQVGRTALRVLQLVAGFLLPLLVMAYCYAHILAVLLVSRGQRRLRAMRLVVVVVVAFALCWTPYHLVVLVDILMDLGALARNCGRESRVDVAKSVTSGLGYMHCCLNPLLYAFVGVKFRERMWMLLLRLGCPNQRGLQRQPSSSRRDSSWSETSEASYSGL
Test: cell-based or functional assay

B1: hCXCL11.0024-G1T4k.one//VHn-G1T4h.one.H435R (Fc fusion)
chain 1: FFPMFKRGRCLCIGPGVKAVKVADIEKASIMYPSNNCDKIEVIITLKENKGQRCLNPKSKQARLIIKKVERKNFEPKSSDKTHTCPPCPAPELRRGPSVFLFPPKPKDTLMISRTPEVTCVVVDVSHEDPEVKFNWYVDGVEVHNAKTKPREEQYNSTYRVVSVLTVLHQDWLNGKEYKCKVSNKGLPSSIEKTISKAKGQPREPQVCTLPPSREEMTKNQVSLWCLVKGFYPSDIAVEWESNGQPENNYKTTPPVLDSDGSFFLYSKLTVDKSRWQEGNVFSCSVMHEALHNHYTQKSLSLSP
chain 2: EPKSSDKTHTCPPCPAPELRRGPSVFLFPPKPKDTLMISRTPEVTCVVVDVSHEDPEVKFNWYVDGVEVHNAKTKPREEQYNSTYRVVSVLTVLHQDWLNGKEYKCKVSNKGLPSSIEKTISKAKGQPREPQVYTLPPSRCEMTKNQVSLSCAVKGFYPSDIAVEWESNGQPENNYKTTPPVLDSDGSFFLVSKLTVDKSRWQEGNVFSCSVMHEALHNRYTQKSLSLSP
Activity retention rate at 33 nM: 32% | Activity retention rate at 100 nM: 72% | Activity retention rate at 300 nM: 105% | Luminescence value at 33 nM: 2.47e+06 | Luminescence value at 100 nM: 1.2e+07 | Luminescence value at 300 nM: 1.31e+07

B2: hCXCL11.0028-G1T4k.one//VHn-G1T4h.one.H435R (Fc fusion)
chain 1: B1 chain 1 with F1K
chain 2: B1 chain 2
Activity retention rate at 33 nM: 26% | Activity retention rate at 100 nM: 53% | Activity retention rate at 300 nM: 90% | Luminescence value at 33 nM: 2e+06 | Luminescence value at 100 nM: 8.87e+06 | Luminescence value at 300 nM: 1.11e+07

B6: hCXCL11.0036-G1T4k.one//VHn-G1T4h.one.H435R (Fc fusion)
chain 1: B1 chain 1 with F1T
chain 2: B1 chain 2
Activity retention rate at 33 nM: 140% | Activity retention rate at 100 nM: 105% | Activity retention rate at 300 nM: 53% | Luminescence value at 33 nM: 1.07e+07 | Luminescence value at 100 nM: 1.76e+07 | Luminescence value at 300 nM: 6.59e+06

B7: hCXCL11.0037-G1T4k.one//VHn-G1T4h.one.H435R (Fc fusion)
chain 1: B1 chain 1 with F1V
chain 2: B1 chain 2
Activity retention rate at 33 nM: 111% | Activity retention rate at 100 nM: 111% | Activity retention rate at 300 nM: 73% | Luminescence value at 33 nM: 8.51e+06 | Luminescence value at 100 nM: 1.85e+07 | Luminescence value at 300 nM: 9.07e+06

B8: hCXCL11.0038-G1T4k.one//VHn-G1T4h.one.H435R (Fc fusion)
chain 1: B1 chain 1 with F1W
chain 2: B1 chain 2
Activity retention rate at 33 nM: 60% | Activity retention rate at 100 nM: 83% | Activity retention rate at 300 nM: 99% | Luminescence value at 33 nM: 4.63e+06 | Luminescence value at 100 nM: 1.39e+07 | Luminescence value at 300 nM: 1.23e+07

B11: hCXCL11.0026-G1T4k.one//VHn-G1T4h.one.H435R (Fc fusion)
chain 1: B1 chain 1 with F1H
chain 2: B1 chain 2
Activity retention rate at 33 nM: 71% | Activity retention rate at 100 nM: 77% | Activity retention rate at 300 nM: 80% | Luminescence value at 33 nM: 5.46e+06 | Luminescence value at 100 nM: 1.29e+07 | Luminescence value at 300 nM: 9.92e+06

B13: hCXCL11.0030-G1T4k.one//VHn-G1T4h.one.H435R (Fc fusion)
chain 1: B1 chain 1 with F1M
chain 2: B1 chain 2
Activity retention rate at 33 nM: 114% | Activity retention rate at 100 nM: 98% | Activity retention rate at 300 nM: 86% | Luminescence value at 33 nM: 8.75e+06 | Luminescence value at 100 nM: 1.64e+07 | Luminescence value at 300 nM: 1.06e+07

B14: hCXCL11.0029-G1T4k.one//VHn-G1T4h.one.H435R (Fc fusion)
chain 1: B1 chain 1 with F1L
chain 2: B1 chain 2
Activity retention rate at 33 nM: 53% | Activity retention rate at 100 nM: 92% | Activity retention rate at 300 nM: 108% | Luminescence value at 33 nM: 4.07e+06 | Luminescence value at 100 nM: 1.54e+07 | Luminescence value at 300 nM: 1.34e+07

B15: hCXCL11.0033-G1T4k.one//VHn-G1T4h.one.H435R (Fc fusion)
chain 1: B1 chain 1 with F1Q
chain 2: B1 chain 2
Activity retention rate at 33 nM: 199% | Activity retention rate at 100 nM: 92% | Activity retention rate at 300 nM: 28% | Luminescence value at 33 nM: 1.53e+07 | Luminescence value at 100 nM: 1.53e+07 | Luminescence value at 300 nM: 3.46e+06

B16: hCXCL11.0027-G1T4k.one//VHn-G1T4h.one.H435R (Fc fusion)
chain 1: B1 chain 1 with F1I
chain 2: B1 chain 2
Activity retention rate at 33 nM: 67% | Activity retention rate at 100 nM: 100% | Activity retention rate at 300 nM: 102% | Luminescence value at 33 nM: 5.18e+06 | Luminescence value at 100 nM: 1.67e+07 | Luminescence value at 300 nM: 1.27e+07

B19: hCXCL11.0032-G1T4k.one//VHn-G1T4h.one.H435R (Fc fusion)
chain 1: B1 chain 1 with F1P
chain 2: B1 chain 2
Activity retention rate at 33 nM: 33% | Activity retention rate at 100 nM: 68% | Activity retention rate at 300 nM: 105% | Luminescence value at 33 nM: 2.5e+06 | Luminescence value at 100 nM: 1.13e+07 | Luminescence value at 300 nM: 1.31e+07

B20: hCXCL11.0035-G1T4k.one//VHn-G1T4h.one.H435R (Fc fusion)
chain 1: B1 chain 1 with F1S
chain 2: B1 chain 2
Activity retention rate at 33 nM: 161% | Activity retention rate at 100 nM: 95% | Activity retention rate at 300 nM: 42% | Luminescence value at 33 nM: 1.23e+07 | Luminescence value at 100 nM: 1.58e+07 | Luminescence value at 300 nM: 5.23e+06

B21: hCXCL11.0031-G1T4k.one//VHn-G1T4h.one.H435R (Fc fusion)
chain 1: B1 chain 1 with F1N
chain 2: B1 chain 2
Activity retention rate at 33 nM: 165% | Activity retention rate at 100 nM: 90% | Activity retention rate at 300 nM: 51% | Luminescence value at 33 nM: 1.27e+07 | Luminescence value at 100 nM: 1.51e+07 | Luminescence value at 300 nM: 6.39e+06

B22: hCXCL11.0034-G1T4k.one//VHn-G1T4h.one.H435R (Fc fusion)
chain 1: B1 chain 1 with F1R
chain 2: B1 chain 2
Activity retention rate at 33 nM: 19% | Activity retention rate at 100 nM: 45% | Activity retention rate at 300 nM: 77% | Luminescence value at 33 nM: 1.49e+06 | Luminescence value at 100 nM: 7.45e+06 | Luminescence value at 300 nM: 9.63e+06

Next, values leading:

Activity retention rate at 33 nM: 68% | Activity retention rate at 100 nM: 76% | Activity retention rate at 300 nM: 72% | Luminescence value at 33 nM: 5.24e+06 | Luminescence value at 100 nM: 1.27e+07 | Luminescence value at 300 nM: 8.9e+06
B3: hCXCL11.0044-G1T4k.one//VHn-G1T4h.one.H435R (Fc fusion)
chain 1: B1 chain 1 with F2G
chain 2: B1 chain 2

Activity retention rate at 33 nM: 81% | Activity retention rate at 100 nM: 78% | Activity retention rate at 300 nM: 41% | Luminescence value at 33 nM: 6.26e+06 | Luminescence value at 100 nM: 1.31e+07 | Luminescence value at 300 nM: 5.05e+06
B4: hCXCL11.0040-G1T4k.one//VHn-G1T4h.one.H435R (Fc fusion)
chain 1: B1 chain 1 with F2A
chain 2: B1 chain 2

Activity retention rate at 33 nM: 5% | Activity retention rate at 100 nM: 22% | Activity retention rate at 300 nM: 52% | Luminescence value at 33 nM: 391000 | Luminescence value at 100 nM: 3.72e+06 | Luminescence value at 300 nM: 6.48e+06
B5: hCXCL11.0047-G1T4k.one//VHn-G1T4h.one.H435R (Fc fusion)
chain 1: B1 chain 1 with F2K
chain 2: B1 chain 2

Activity retention rate at 33 nM: 102% | Activity retention rate at 100 nM: 86% | Activity retention rate at 300 nM: 75% | Luminescence value at 33 nM: 7.86e+06 | Luminescence value at 100 nM: 1.43e+07 | Luminescence value at 300 nM: 9.32e+06
B9: hCXCL11.0039-G1T4k.one//VHn-G1T4h.one.H435R (Fc fusion)
chain 1: B1 chain 1 with F1Y
chain 2: B1 chain 2

Activity retention rate at 33 nM: 10% | Activity retention rate at 100 nM: 36% | Activity retention rate at 300 nM: 65% | Luminescence value at 33 nM: 760000 | Luminescence value at 100 nM: 6.04e+06 | Luminescence value at 300 nM: 8.05e+06
B10: hCXCL11.0046-G1T4k.one//VHn-G1T4h.one.H435R (Fc fusion)
chain 1: B1 chain 1 with F2I
chain 2: B1 chain 2

Activity retention rate at 33 nM: 61% | Activity retention rate at 100 nM: 67% | Activity retention rate at 300 nM: 58% | Luminescence value at 33 nM: 4.7e+06 | Luminescence value at 100 nM: 1.12e+07 | Luminescence value at 300 nM: 7.23e+06
B12: hCXCL11.0042-G1T4k.one//VHn-G1T4h.one.H435R (Fc fusion)
chain 1: B1 chain 1 with F2E
chain 2: B1 chain 2

Activity retention rate at 33 nM: 25% | Activity retention rate at 100 nM: 56% | Activity retention rate at 300 nM: 42% | Luminescence value at 33 nM: 1.92e+06 | Luminescence value at 100 nM: 9.37e+06 | Luminescence value at 300 nM: 5.16e+06
B17: hCXCL11.0041-G1T4k.one//VHn-G1T4h.one.H435R (Fc fusion)
chain 1: B1 chain 1 with F2D
chain 2: B1 chain 2

Activity retention rate at 33 nM: 61% | Activity retention rate at 100 nM: 75% | Activity retention rate at 300 nM: 67% | Luminescence value at 33 nM: 4.67e+06 | Luminescence value at 100 nM: 1.26e+07 | Luminescence value at 300 nM: 8.3e+06
B18: hCXCL11.0045-G1T4k.one//VHn-G1T4h.one.H435R (Fc fusion)
chain 1: B1 chain 1 with F2H
chain 2: B1 chain 2
